The values below come from patent US20260092920A1 (FIBROINOVA BIOMEDICAL TECHNOLOGY GUANGZHOU, published 2026).

As usually defined, the Kd is a measure of binding affinity in units of concentration. High values mean lower affinity, low ones higher affinity.

The assay deals with T1, His-tagged extracellular domain of antigen DDR2 (human, UniProt Q16832 22-399).
T1 construct: range 22-399; Captured on Ni-NTA sensors in BLI; also called extracellular domain protein of the DDR2 antigen; DDR2 antigen; not shown: His tag
T1 sequence (looked up): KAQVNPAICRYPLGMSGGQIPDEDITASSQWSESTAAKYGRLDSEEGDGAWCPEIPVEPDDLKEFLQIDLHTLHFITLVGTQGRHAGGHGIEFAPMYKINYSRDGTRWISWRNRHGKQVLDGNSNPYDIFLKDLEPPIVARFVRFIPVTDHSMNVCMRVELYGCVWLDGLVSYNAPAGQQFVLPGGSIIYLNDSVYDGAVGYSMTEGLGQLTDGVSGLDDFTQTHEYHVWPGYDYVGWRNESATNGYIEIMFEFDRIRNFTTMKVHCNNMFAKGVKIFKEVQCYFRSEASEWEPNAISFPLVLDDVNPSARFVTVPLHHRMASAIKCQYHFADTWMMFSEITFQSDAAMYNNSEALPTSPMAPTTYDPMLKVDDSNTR
In words: BLI (ForteBio), His-tagged DDR2 extracellular domain captured on Ni-NTA sensor, nanobody 100 nM to 3.125 nM in solution, 1:1 fit. As to the method:
For the DDR2 nanobody 1A12 described above, based on the ForteBio bio-layer interferometry (BLI) platform for molecular interaction analysis, the affinity of the nanobody for the extracellular domain protein of the DDR2 antigen was analyzed and detected by determining the affinity of the antibody for the antigen by using the BLI method.
The kinetic curves were made, and the relevant parameters were calculated. Appropriate binding and dissociation curves of several concentration gradients were selected. All the curves were fitted using the 1:1 binding model. Three curves with the best fitting degrees were selected for plotting and analysis. Finally, important parameters such as affinity value, binding constant, and dissociation constant were obtained.

B1: DDR2 nanobody 1A12 (VHH)
VHH: EVQLVESGGGLVQPGGSLRLSCAASGYILSPNVMGWFRQAPGKGRELVAAISWGDGRTYYPDSVEGRFTISRDNAKRMVYLQMNSLRAEDTAVYYCAASRKGYPSTRSDPYNYWGQGTQVTVSS
notes: VHH of an alpaca heavy chain antibody raised against the human DDR2 extracellular domain; Expressed and purified; also called Nb-DDR2; 1A12-VHH
The molecule B1 came in with a Kd of 4.36 nM.
